{"source": "the supplement of paper PMC10567573", "parents": {"B1": {"name": "CLCN6 (parent)", "chain": "FQSISLRKIQFNFPYFRSDRDKRD"}}}
{"variants_of": "B1", "experiment": "protein stability index of a GFP-peptide fusion (GPS, HEK-293T) (PSI 1-6); higher = more stable", "details": "c terminus: a fixed tail appended"}
{"variant": "FQSISLRRIQFNFPYFRSDRDKRD", "protein stability index": 1.74}
{"variant": "FQSISLRSIQFNFPYFRSDRDKRD", "protein stability index": 1.31}
{"variant": "FQSISLRTIQFNFPYFRSDRDKRD", "protein stability index": 1.44}
{"variant": "FQSISLRWIQFNFPYFRSDRDKRD", "protein stability index": 2.43}
{"variant": "FQSISLRYIQFNFPYFRSDRDKRD", "protein stability index": 2.09}
{"variant": "FQSISLRKCQFNFPYFRSDRDKRD", "protein stability index": 1.98}
{"variant": "FQSISLRKDQFNFPYFRSDRDKRD", "protein stability index": 1.72}
{"variant": "FQSISLRKEQFNFPYFRSDRDKRD", "protein stability index": 1.98}
{"variant": "FQSISLRKGQFNFPYFRSDRDKRD", "protein stability index": 1.44}
{"variant": "FQSISLRKHQFNFPYFRSDRDKRD", "protein stability index": 1.83}
{"variant": "FQSISLRKLQFNFPYFRSDRDKRD", "protein stability index": 1.62}
{"variant": "FQSISLRKNQFNFPYFRSDRDKRD", "protein stability index": 1.47}
{"variant": "FQSISLRKPQFNFPYFRSDRDKRD", "protein stability index": 1.65}
{"variant": "FQSISLRKQQFNFPYFRSDRDKRD", "protein stability index": 2.81}
{"variant": "FQSISLRKRQFNFPYFRSDRDKRD", "protein stability index": 2.02}
{"variant": "FQSISLRKSQFNFPYFRSDRDKRD", "protein stability index": 2}
{"variant": "FQSISLRKTQFNFPYFRSDRDKRD", "protein stability index": 2.78}
{"variant": "FQSISLRKWQFNFPYFRSDRDKRD", "protein stability index": 1.78}
{"variant": "FQSISLRKIAFNFPYFRSDRDKRD", "protein stability index": 1.56}
{"variant": "FQSISLRKICFNFPYFRSDRDKRD", "protein stability index": 2.6}
{"variant": "FQSISLRKIDFNFPYFRSDRDKRD", "protein stability index": 2.04}
{"variant": "FQSISLRKIFFNFPYFRSDRDKRD", "protein stability index": 1.52}
{"variant": "FQSISLRKIHFNFPYFRSDRDKRD", "protein stability index": 1.51}
{"variant": "FQSISLRKIIFNFPYFRSDRDKRD", "protein stability index": 2.33}
{"variant": "FQSISLRKIKFNFPYFRSDRDKRD", "protein stability index": 1.67}
{"variant": "FQSISLRKILFNFPYFRSDRDKRD", "protein stability index": 1.67}
{"variant": "FQSISLRKINFNFPYFRSDRDKRD", "protein stability index": 1.95}
{"variant": "FQSISLRKIPFNFPYFRSDRDKRD", "protein stability index": 1.74}
{"variant": "FQSISLRKISFNFPYFRSDRDKRD", "protein stability index": 1.98}
{"variant": "FQSISLRKIVFNFPYFRSDRDKRD", "protein stability index": 2.31}
{"variant": "FQSISLRKIYFNFPYFRSDRDKRD", "protein stability index": 1}
{"variant": "FQSISLRKIQCNFPYFRSDRDKRD", "protein stability index": 1.96}
{"variant": "FQSISLRKIQENFPYFRSDRDKRD", "protein stability index": 2.02}
{"variant": "FQSISLRKIQGNFPYFRSDRDKRD", "protein stability index": 1.41}
{"variant": "FQSISLRKIQHNFPYFRSDRDKRD", "protein stability index": 1.74}
{"variant": "FQSISLRKIQKNFPYFRSDRDKRD", "protein stability index": 2.79}
{"variant": "FQSISLRKIQLNFPYFRSDRDKRD", "protein stability index": 2.54}
{"variant": "FQSISLRKIQMNFPYFRSDRDKRD", "protein stability index": 1.65}
{"variant": "FQSISLRKIQPNFPYFRSDRDKRD", "protein stability index": 1.28}
{"variant": "FQSISLRKIQQNFPYFRSDRDKRD", "protein stability index": 1.25}
{"variant": "FQSISLRKIQRNFPYFRSDRDKRD", "protein stability index": 1.51}
{"variant": "FQSISLRKIQSNFPYFRSDRDKRD", "protein stability index": 1.56}
{"variant": "FQSISLRKIQYNFPYFRSDRDKRD", "protein stability index": 1.61}
{"variant": "FQSISLRKIQFAFPYFRSDRDKRD", "protein stability index": 1.09}
{"variant": "FQSISLRKIQFDFPYFRSDRDKRD", "protein stability index": 1.53}
{"variant": "FQSISLRKIQFEFPYFRSDRDKRD", "protein stability index": 1.5}
{"variant": "FQSISLRKIQFIFPYFRSDRDKRD", "protein stability index": 2.06}
{"variant": "FQSISLRKIQFKFPYFRSDRDKRD", "protein stability index": 2.04}
{"variant": "FQSISLRKIQFMFPYFRSDRDKRD", "protein stability index": 1.54}
{"variant": "FQSISLRKIQFRFPYFRSDRDKRD", "protein stability index": 2.59}
{"variant": "FQSISLRKIQFSFPYFRSDRDKRD", "protein stability index": 1.65}
{"variant": "FQSISLRKIQFTFPYFRSDRDKRD", "protein stability index": 2.37}
{"variant": "FQSISLRKIQFVFPYFRSDRDKRD", "protein stability index": 1.9}
{"variant": "FQSISLRKIQFNAPYFRSDRDKRD", "protein stability index": 1.84}
{"variant": "FQSISLRKIQFNCPYFRSDRDKRD", "protein stability index": 2.2}
{"variant": "FQSISLRKIQFNDPYFRSDRDKRD", "protein stability index": 1.98}
{"variant": "FQSISLRKIQFNEPYFRSDRDKRD", "protein stability index": 3.21}
{"variant": "FQSISLRKIQFNIPYFRSDRDKRD", "protein stability index": 1.35}
{"variant": "FQSISLRKIQFNKPYFRSDRDKRD", "protein stability index": 1.8}
{"variant": "FQSISLRKIQFNMPYFRSDRDKRD", "protein stability index": 2.29}
{"variant": "FQSISLRKIQFNPPYFRSDRDKRD", "protein stability index": 1.75}
{"variant": "FQSISLRKIQFNQPYFRSDRDKRD", "protein stability index": 2.28}
{"variant": "FQSISLRKIQFNSPYFRSDRDKRD", "protein stability index": 1.59}
{"variant": "FQSISLRKIQFNVPYFRSDRDKRD", "protein stability index": 1.43}
{"variant": "FQSISLRKIQFNYPYFRSDRDKRD", "protein stability index": 2.49}
{"variant": "FQSISLRKIQFNFCYFRSDRDKRD", "protein stability index": 1.82}
{"variant": "FQSISLRKIQFNFEYFRSDRDKRD", "protein stability index": 1.99}
{"variant": "FQSISLRKIQFNFFYFRSDRDKRD", "protein stability index": 1.69}
{"variant": "FQSISLRKIQFNFGYFRSDRDKRD", "protein stability index": 1.69}
{"variant": "FQSISLRKIQFNFHYFRSDRDKRD", "protein stability index": 1.67}
{"variant": "FQSISLRKIQFNFIYFRSDRDKRD", "protein stability index": 1.43}
{"variant": "FQSISLRKIQFNFLYFRSDRDKRD", "protein stability index": 1.24}
{"variant": "FQSISLRKIQFNFNYFRSDRDKRD", "protein stability index": 1.81}
{"variant": "FQSISLRKIQFNFQYFRSDRDKRD", "protein stability index": 2.5}
{"variant": "FQSISLRKIQFNFPAFRSDRDKRD", "protein stability index": 3.09}
{"variant": "FQSISLRKIQFNFPCFRSDRDKRD", "protein stability index": 2.21}
{"variant": "FQSISLRKIQFNFPDFRSDRDKRD", "protein stability index": 2.31}
{"variant": "FQSISLRKIQFNFPEFRSDRDKRD", "protein stability index": 2.7}
{"variant": "FQSISLRKIQFNFPFFRSDRDKRD", "protein stability index": 1.48}
{"variant": "FQSISLRKIQFNFPGFRSDRDKRD", "protein stability index": 2.68}
{"variant": "FQSISLRKIQFNFPHFRSDRDKRD", "protein stability index": 2.78}
{"variant": "FQSISLRKIQFNFPIFRSDRDKRD", "protein stability index": 2.15}
{"variant": "FQSISLRKIQFNFPKFRSDRDKRD", "protein stability index": 2}
{"variant": "FQSISLRKIQFNFPMFRSDRDKRD", "protein stability index": 1.53}
{"variant": "FQSISLRKIQFNFPNFRSDRDKRD", "protein stability index": 2.78}
{"variant": "FQSISLRKIQFNFPPFRSDRDKRD", "protein stability index": 2.41}
{"variant": "FQSISLRKIQFNFPQFRSDRDKRD", "protein stability index": 2.56}
{"variant": "FQSISLRKIQFNFPSFRSDRDKRD", "protein stability index": 2.58}
{"variant": "FQSISLRKIQFNFPTFRSDRDKRD", "protein stability index": 2.75}
{"variant": "FQSISLRKIQFNFPVFRSDRDKRD", "protein stability index": 2.22}
{"variant": "FQSISLRKIQFNFPWFRSDRDKRD", "protein stability index": 1.44}
{"variant": "FQSISLRKIQFNFPYARSDRDKRD", "protein stability index": 1.68}
{"variant": "FQSISLRKIQFNFPYCRSDRDKRD", "protein stability index": 1.52}
{"variant": "FQSISLRKIQFNFPYDRSDRDKRD", "protein stability index": 2.74}
